Laboratory results: publication PMC3433432

Assays:
[1] = target: L17C APP-eGFP (human APP751 with leucine 17 of the Aβ sequence mutated to cysteine, fused to eGFP) (human); assay: FRET or BRET; homoFRET by time-resolved fluorescence anisotropy imaging (tr-FAIM), epifluorescence excitation, objective 60x NA 1.49, xNA = 1.2; living HEK293 cells, 37°C, 5% CO2
[2] = target: L17C APP-eGFP (human APP751 with leucine 17 of the Aβ sequence mutated to cysteine, fused to eGFP) (human); assay: FRET or BRET; homoFRET by tr-FAIM under TIRF excitation (s polarized light), at the plasma membrane; objective 60x NA 1.49; living HEK293 cells, 37°C, 5% CO2
[3] = target: enhanced Green Fluorescent Protein (eGFP), cytosolic; assay: FRET or BRET; homoFRET by time-resolved fluorescence anisotropy imaging (tr-FAIM), epifluorescence excitation, objective 60x NA 1.49, xNA = 1.2; living HEK293 cells, 37°C, 5% CO2

Row | depolarization time associated with energy transfer (homoFRET) [1] [ns] | depolarization time associated with energy transfer (homoFRET) [2] [ns] | proportion of molecules in interaction (homoFRET) [3] [%] | Substance
1 | 2.4 | 5.4 |  | L17C APP-eGFP (human APP751 with leucine 17 of the Aβ sequence mutated to cysteine, fused to eGFP) (natural protein)
2 |  |  | 6.6 | enhanced Green Fluorescent Protein (eGFP), cytosolic
